Test results published in patent US20230303994.

Target: pre-pro-human insulin

| Protein | Activity PPI cleavage | Selectivity |
| --- | --- | --- |
| trypsin variant SEQ ID NO: 52 (protein) IVGGYTCAANSIPYQVSLNSGSHRCGGSLINSQWVVSAAHCYKLRIQVRLGEHNIDVLEGNEQFINAAKIITHPNFNGNTLDNDIMLIKLSSPATLNSRVATVSLPRSCAAAGTECLISGWGNTKSSGSSYPSLLQCLKAPVLSDSSCKSSYPGQITGNMICVGFLEGGKDACQGDSGGPVVCNGQLQGIVSSGYGCAQKNKPGVYTKVCNYVNWIQQTIAAN | yes | >90% |
| trypsin variant SEQ ID NO: 54 (protein) IVGGYTCAANSIPYQVSLNSGSHRCGGSLINSQWVVSAAHCYKSRIQVRLGEHNIAVLEGNEQFINAAKIITHPNFNGNTLDNDIMLIKLSSPATLNSRVATVSLPRSCAAAGTECLISGWGNTKSSGSSYPSLLQCLKAPVLSDSSCKSSYPGQITGNMICVGFLEGGKDACQGDSGGPVVCNGQLQGIVSSGYGCAQKNKPGVYTKVCNYVNWIQQTIAAN | yes | >90% |
| trypsin variant SEQ ID NO: 55 (protein) IVGGYTCAANSIPYQVSLNSGSHRCGGSLINSQWVVSAAHCYKSRIQVRLGEHNIWVLEGNEQFINAAKIITHPNFNGNTLDNDIMLIKLSSPATLNSRVATVSLPRSCAAAGTECLISGWGNTKSSGSSYPSLLQCLKAPVLSDSSCKSSYPGQITGNMICVGFLEGGKDACQGDSGGPVVCNGQLQGIVSSGYGCAQKNKPGVYTKVCNYVNWIQQTIAAN | yes | >90% |
| trypsin variant SEQ ID NO: 7 (protein) IVGGYTCAANSIPYQVSLNSGSHRCGGSLINSQWVVSAAHCYKSRIQVRLGEHNIDVLEGNEQFINAAKIITHPNFNGNTLDNDIMLIKLSSPATLNSWVATVSLPRSCAAAGTECLISGWGNTKSSGSSYPSLLQCLKAPVLSDSSCKSSYPGQITGNMICVGFLEGGKDACQGDSGGPVVCNGQLQGIVSSGYGCAQKNKPGVYTKVCNYVNWIQQTIAAN | yes | >90% |
| trypsin variant SEQ ID NO: 58 (protein) IVGGYTCAANSIPYQVSLNSGSHRCGGSLINSQWVVSAAHCYKSRIQVRLGEHNIDVLEGNEQFINAAKIITHPNFNGNTLDNDIMLIKLSSPATLNSRVATVSLPPSCAAAGTECLISGWGNTKSSGSSYPSLLQCLKAPVLSDSSCKSSYPGQITGNMICVGFLEGGKDACQGDSGGPVVCNGQLQGIVSSGYGCAQKNKPGVYTKVCNYVNWIQQTIAAN | yes | >90% |
| trypsin variant SEQ ID NO: 59 (protein) IVGGYTCAANSIPYQVSLNSGSHRCGGSLINSQWVVSAAHCYKSRIQVRLGEHNIDVLEGNEQFINAAKIITHPNFNGNTLDNDIMLIKLSSPATLNSRVATVSLPGSCAAAGTECLISGWGNTKSSGSSYPSLLQCLKAPVLSDSSCKSSYPGQITGNMICVGFLEGGKDACQGDSGGPVVCNGQLQGIVSSGYGCAQKNKPGVYTKVCNYVNWIQQTIAAN | yes | >90% |
| trypsin variant SEQ ID NO: 60 (protein) IVGGYTCAANSIPYQVSLNSGSHRCGGSLINSQWVVSAAHCYKSRIQVRLGEHNIDVLEGNEQFINAAKIITHPNFNGNTLDNDIMLIKLSSPATLNSRVATVSLPSSCAAAGTECLISGWGNTKSSGSSYPSLLQCLKAPVLSDSSCKSSYPGQITGNMICVGFLEGGKDACQGDSGGPVVCNGQLQGIVSSGYGCAQKNKPGVYTKVCNYVNWIQQTIAAN | yes | >90% |
| trypsin variant SEQ ID NO: 61 (protein) IVGGYTCAANSIPYQVSLNSGSHRCGGSLINSQWVVSAAHCYKSRIQVRLGEHNIDVLEGNEQFINAAKIITHPNFNGNTLDNDIMLIKLSSPATLNSRVATVSLPDSCAAAGTECLISGWGNTKSSGSSYPSLLQCLKAPVLSDSSCKSSYPGQITGNMICVGFLEGGKDACQGDSGGPVVCNGQLQGIVSSGYGCAQKNKPGVYTKVCNYVNWIQQTIAAN | yes | >80% |
| trypsin variant SEQ ID NO: 62 (protein) IVGGYTCAANSIPYQVSLNSGSHRCGGSLINSQWVVSAAHCYKSRIQVRLGEHNIDVLEGNEQFINAAKIITHPNFNGNTLDNDIMLIKLSSPATLNSRVATVSLPRSCAAAGTECLISGWGNTKSSGSSVPSLLQCLKAPVLSDSSCKSSYPGQITGNMICVGFLEGGKDACQGDSGGPVVCNGQLQGIVSSGYGCAQKNKPGVYTKVCNYVNWIQQTIAAN | yes | >90% |
| trypsin variant SEQ ID NO: 8 (protein) IVGGYTCAANSIPYQVSLNSGSHRCGGSLINSQWVVSAAHCYKSRIQVRLGEHNIDVLEGNEQFINAAKIITHPNFNGNTLDNDIMLIKLSSPATLNSGVATVSLPRSCAAAGTECLISGWGNTKSSGSSYPSLLQCLKAPVLSDSSCKSSYPGQITGNMICVGFLEGGKDACQGDSGGPVVCNGQLQGIVSSGYGCAQKNKPGVYTKVCNYVNWIQQTIAAN | yes | >90% |
| trypsin variant SEQ ID NO: 63 (protein) IVGGYTCAANSIPYQVSLNSGSHRCGGSLINSQWVVSAAHCYKSRIQVRLGEHNIDVLEGNEQFINAAKIITHPNFNGNTLDNDIMLIKLSSPATLNSRVATVSLPRSCAAAGTECLISGWGNTKSSGSSIPSLLQCLKAPVLSDSSCKSSYPGQITGNMICVGFLEGGKDACQGDSGGPVVCNGQLQGIVSSGYGCAQKNKPGVYTKVCNYVNWIQQTIAAN | yes | >90% |
| trypsin variant SEQ ID NO: 64 (protein) IVGGYTCAANSIPYQVSLNSGSHRCGGSLINSQWVVSAAHCYKSRIQVRLGEHNIDVLEGNEQFINAAKIITHPNFNGNTLDNDIMLIKLSSPATLNSRVATVSLPRSCAAAGTECLISGWGNTKSSGSSWPSLLQCLKAPVLSDSSCKSSYPGQITGNMICVGFLEGGKDACQGDSGGPVVCNGQLQGIVSSGYGCAQKNKPGVYTKVCNYVNWIQQTIAAN | yes | >90% |
| trypsin variant SEQ ID NO: 65 (protein) IVGGYTCAANSIPYQVSLNSGSHRCGGSLINSQWVVSAAHCYKSRIQVRLGEHNIDVLEGNEQFINAAKIITHPNFNGNTLDNDIMLIKLSSPATLNSRVATVSLPRSCAAAGTECLISGWGNTKSSGSSGPSLLQCLKAPVLSDSSCKSSYPGQITGNMICVGFLEGGKDACQGDSGGPVVCNGQLQGIVSSGYGCAQKNKPGVYTKVCNYVNWIQQTIAAN | yes | >80% |
| trypsin variant SEQ ID NO: 66 (protein) IVGGYTCAANSIPYQVSLNSGSHRCGGSLINSQWVVSAAHCYKSRIQVRLGEHNIDVLEGNEQFINAAKIITHPNFNGNTLDNDIMLIKLSSPATLNSRVATVSLPRSCAAAGTECLISGWGNTKSSGSSSPSLLQCLKAPVLSDSSCKSSYPGQITGNMICVGFLEGGKDACQGDSGGPVVCNGQLQGIVSSGYGCAQKNKPGVYTKVCNYVNWIQQTIAAN | yes | >90% |
| trypsin variant SEQ ID NO: 67 (protein) IVGGYTCAANSIPYQVSLNSGSHRCGGSLINSQWVVSAAHCYKSRIQVRLGEHNIDVLEGNEQFINAAKIITHPNFNGNTLDNDIMLIKLSSPATLNSRVATVSLPRSCAAAGTECLISGWGNTKSSGSSQPSLLQCLKAPVLSDSSCKSSYPGQITGNMICVGFLEGGKDACQGDSGGPVVCNGQLQGIVSSGYGCAQKNKPGVYTKVCNYVNWIQQTIAAN | yes | >90% |
| trypsin variant SEQ ID NO: 68 (protein) IVGGYTCAANSIPYQVSLNSGSHRCGGSLINSQWVVSAAHCYKSRIQVRLGEHNIDVLEGNEQFINAAKIITHPNFNGNTLDNDIMLIKLSSPATLNSRVATVSLPRSCAAAGTECLISGWGNTKSSGSSDPSLLQCLKAPVLSDSSCKSSYPGQITGNMICVGFLEGGKDACQGDSGGPVVCNGQLQGIVSSGYGCAQKNKPGVYTKVCNYVNWIQQTIAAN | yes | >70% |
| trypsin variant SEQ ID NO: 69 (protein) IVGGYTCAANSIPYQVSLNSGSHRCGGSLINSQWVVSAAHCYKSRIQVRLGEHNIDVLEGNEQFINAAKIITHPNFNGNTLDNDIMLIKLSSPATLNSRVATVSLPRSCAAAGTECLISGWGNTKSSGSSYPSLLQCLKAPVLSDSSCKSSYPGQITGNMICVGFLEGGKDACQGDSGGPVVCNGQLQGIVSFGYGCAQKNKPGVYTKVCNYVNWIQQTIAAN | yes | >70% |
| trypsin variant SEQ ID NO: 70 (protein) IVGGYTCAANSIPYQVSLNSGSHRCGGSLINSQWVVSAAHCYKSRIQVRLGEHNIDVLEGNEQFINAAKIITHPNFNGNTLDNDIMLIKLSSPATLNSRVATVSLPRSCAAAGTECLISGWGNTKSSGSSYPSLLQCLKAPVLSDSSCKSSYPGQITGNMICVGFLEGGKDACQGDSGGPVVCNGQLQGIVSYGYGCAQKNKPGVYTKVCNYVNWIQQTIAAN | yes | >70% |
| trypsin variant SEQ ID NO: 71 (protein) IVGGYTCAANSIPYQVSLNSGSHRCGGSLINSQWVVSAAHCYKSRIQVRLGEHNIDVLEGNEQFINAAKIITHPNFNGNTLDNDIMLIKLSSPATLNSRVATVSLPRSCAAAGTECLISGWGNTKSSGSSYPSLLQCLKAPVLSDSSCKSSYPGQITGNMICVGFLEGGKDACQGDSGGPVVCNGQLQGIVSTGYGCAQKNKPGVYTKVCNYVNWIQQTIAAN | yes | >62.1% |
| trypsin variant SEQ ID NO: 72 (protein) IVGGYTCAANSIPYQVSLNSGSHRCGGSLINSQWVVSAAHCYKSRIQVRLGEHNIDVLEGNEQFINAAKIITHPNFNSNTLDNDIMLIKLSSPATLNSRVATVSLPRSCAAAGTECLISGWGNTKSSGSSYPSLLQCLKAPVLSDSSCKSSYPGQITGNMICVGFLEGGKDACQGDSGGPVVCNGQLQGIVSSGYGCAQKNKPGVYTKVCNYVNWIQQTIAAN | yes | >90% |
| trypsin variant SEQ ID NO: 75 (protein) IVGGYTCAANSIPYQVSLNSGSHRCGGSLINSQWVVSAAHCYKSRIQVRLGEHNIDVLEGNEQFINAAKIITHPNFNYNTLDNDIMLIKLSSPATLNSRVATVSLPRSCAAAGTECLISGWGNTKSSGSSYPSLLQCLKAPVLSDSSCKSSYPGQITGNMICVGFLEGGKDACQGDSGGPVVCNGQLQGIVSSGYGCAQKNKPGVYTKVCNYVNWIQQTIAAN | yes | >90% |
